Experimental data as given in patent US9789130B2, “Method for blocking HIV entry into dendritic cells by inhibiting sialoadhesin-sialyllactose binding interactions with gangliosides” (LABORATORIOS DEL DR. ESTEVE, S.A., priority 2011, dated 2017).

Target: T1, Siglec-1 (Homo sapiens, UniProt Q9BZZ2)
T1 construct: Siglec-1 expressed in LPS mDCs capture distinct ganglioside containing vesicles; endogenous in cells; host or cells: LPS-matured monocyte-derived dendritic cells (LPS mDCs) from donor PBMCs
T1 sequence (Q9BZZ2 20-1709): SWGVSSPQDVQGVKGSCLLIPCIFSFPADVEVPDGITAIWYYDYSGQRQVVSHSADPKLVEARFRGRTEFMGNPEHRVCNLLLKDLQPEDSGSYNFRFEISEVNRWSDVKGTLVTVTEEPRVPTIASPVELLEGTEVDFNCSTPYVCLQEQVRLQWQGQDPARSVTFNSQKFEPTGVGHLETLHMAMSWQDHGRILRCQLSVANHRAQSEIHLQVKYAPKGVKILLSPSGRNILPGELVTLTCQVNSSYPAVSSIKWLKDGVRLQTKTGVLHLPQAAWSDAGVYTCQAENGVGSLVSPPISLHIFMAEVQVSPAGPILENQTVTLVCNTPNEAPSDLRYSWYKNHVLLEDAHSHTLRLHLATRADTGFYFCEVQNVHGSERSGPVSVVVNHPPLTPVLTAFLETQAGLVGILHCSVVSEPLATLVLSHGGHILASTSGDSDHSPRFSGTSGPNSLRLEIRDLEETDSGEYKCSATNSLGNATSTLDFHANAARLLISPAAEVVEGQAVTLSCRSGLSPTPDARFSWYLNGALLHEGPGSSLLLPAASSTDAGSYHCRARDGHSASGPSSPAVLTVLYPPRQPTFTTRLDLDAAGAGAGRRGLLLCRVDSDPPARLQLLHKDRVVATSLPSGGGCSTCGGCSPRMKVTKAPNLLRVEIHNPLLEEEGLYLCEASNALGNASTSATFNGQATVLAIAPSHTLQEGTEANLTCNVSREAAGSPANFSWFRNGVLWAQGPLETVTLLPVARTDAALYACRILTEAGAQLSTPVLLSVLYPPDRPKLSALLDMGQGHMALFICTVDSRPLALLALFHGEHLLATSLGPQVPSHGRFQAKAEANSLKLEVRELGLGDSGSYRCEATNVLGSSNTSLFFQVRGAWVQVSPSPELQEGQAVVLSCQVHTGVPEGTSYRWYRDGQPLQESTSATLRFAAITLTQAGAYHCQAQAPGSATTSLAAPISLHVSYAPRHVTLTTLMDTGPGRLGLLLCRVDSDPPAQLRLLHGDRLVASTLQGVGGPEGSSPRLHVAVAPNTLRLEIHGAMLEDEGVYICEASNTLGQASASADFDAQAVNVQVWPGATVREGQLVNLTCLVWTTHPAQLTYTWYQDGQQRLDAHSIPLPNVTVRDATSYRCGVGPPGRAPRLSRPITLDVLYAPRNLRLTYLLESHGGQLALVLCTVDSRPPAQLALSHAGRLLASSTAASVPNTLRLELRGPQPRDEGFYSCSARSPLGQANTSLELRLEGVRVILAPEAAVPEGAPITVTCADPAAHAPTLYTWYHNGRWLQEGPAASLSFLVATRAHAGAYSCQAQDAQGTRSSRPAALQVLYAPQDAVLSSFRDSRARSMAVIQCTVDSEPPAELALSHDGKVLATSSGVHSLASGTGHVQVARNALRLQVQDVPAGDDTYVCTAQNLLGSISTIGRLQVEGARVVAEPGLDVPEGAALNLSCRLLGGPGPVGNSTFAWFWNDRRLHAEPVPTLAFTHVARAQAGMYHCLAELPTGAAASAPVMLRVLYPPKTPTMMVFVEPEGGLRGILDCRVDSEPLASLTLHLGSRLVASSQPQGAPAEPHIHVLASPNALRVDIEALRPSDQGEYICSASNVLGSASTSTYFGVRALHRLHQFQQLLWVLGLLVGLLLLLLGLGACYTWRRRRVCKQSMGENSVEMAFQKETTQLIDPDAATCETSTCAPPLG
Experiment: VLP capture by LPS mDCs pre-incubated with α-Siglec-1 mAbs
Format: cell-based
Conditions: 2 μg/ml mAb 7D2 treated with at least 100-fold molar excess of human recombinant protein
Method: FIG. 11. Siglec-1 expressed in LPS mDCs capture distinct ganglioside containing vesicles, such as HIV-1 viral-like particles, liposomes, and exosomes. Capture of VLPHIV-Gag-eGFP by LPS mDCs that had been pre-incubated with decreasing concentrations of α-Siglec-1 mAb 7D2 before VLP exposure for 30 min at 37° C.
FIG. 12. Capture of VLPHIV-Gag-eGFP by LPS mDCs that had been pre-incubated with or without 2 μg/ml of α-Siglec-1 mAb 7D2 previously treated or not with at least a 100-fold molar excess of the indicated human recombinant proteins. Of note, Siglec-14 shares 100% of amino acid homology with Siglec-5 in the V-set domain.
FIG. 13. Blocking effect of α-Siglec-1 mAb 7-239. (A) Capture of VLPHIV-Gag-eGFP by LPS mDCs that had been pre-incubated with decreasing concentrations of α-Siglec-1 mAb 7-239 before VLP exposure for 30 min at 37° C. […] (B) Capture of VLPHIV-Gag-eGFP by LPS mDCs that had been pre-incubated with 10 μg/ml of the indicated mAbs before VLP exposure for 3 h at 37° C.

B1: purified Siglec-7: human recombinant Siglec-7 protein used to pre-treat mAb 7D2 (protein, UniProt Q9Y286 19-467, looked up)
Sialic acid-binding Ig-like …: QKSNRKDYSLTMQSSVTVQEGMCVHVRCSFSYPVDSQTDSDPVHGYWFRAGNDISWKAPVATNNPAWAVQEETRDRFHLLGDPQTKNCTLSIRDARMSDAGRYFFRMEKGNIKWNYKYDQLSVNVTALTHRPNILIPGTLESGCFQNLTCSVPWACEQGTPPMISWMGTSVSPLHPSTTRSSVLTLIPQPQHHGTSLTCQVTLPGAGVTTNRTIQLNVSYPPQNLTVTVFQGEGTASTALGNSSSLSVLEGQSLRLVCAVDSNPPARLSWTWRSLTLYPSQPSNPLVLELQVHLGDEGEFTCRAQNSLGSQHVSLNLSLQQEYTGKMRPVSGVLLGAVGGAGATALVFLSFCVIFIVVRSCRKKSARPAADVGDIGMKDANTIRGSASQGNLTESWADDNPRHHGLAAHSSGEEREIQYAPLSFHKGEPQDLSGQEATNNEYSEIKIPK
VLP capture by LPS mDCs with mAb 7D2 pre-incubated with purified protein: had no effect

B2: CD83: human recombinant CD83 protein used to pre-treat mAb 7D2 (protein, UniProt Q01151 20-205, looked up)
CD83 antigen: TPEVKVACSEDVDLPCTAPWDPQVPYTVSWVKLLEGGEERMETPQEDHLRGQHYHQKGQNGSFDAPNERPYSLKIRNTTSCNSGTYRCTLQDPDGQRNLSGKVILRVTGCPAQRKEETFKKYRAEIVLLLALVIFYLTLIIFTCKFARLQSIFPDFSKAGMERAFLPVTSPNKHLGLVTPHKTELV
VLP capture by LPS mDCs with mAb 7D2 pre-incubated with purified protein: had no effect
